From article PMC11919693, “Structural basis of the mechanism and inhibition of a human ceramide synthase” (Nature Structural & Molecular Biology, 2024)
Blank lines part the entries; values can stand above or below the binder they belong to.

Key:
[1] = denaturing intact protein MS; conditions: glycan lost; control: wild-type CerS6 (Met1-Asp350)
[2] = biological target: T1, biotinylated C-terminally Avi-tagged human CerS6 (Homo sapiens, biotin on the Avi tag (in vitro, BirA)); assay: BLI; Octet Red 384, Streptavidin SA biosensors loaded with 40 µg/ml biotinylated CerS6, SEC buffer with 0.003% LMNG and 0.0003% CHS; screen of unique nanobodies for slow off rates; conditions: both partners purified
T1 construct: Ceramide synthase 6 (CerS6), Homo sapiens, UniProt Q6ZMG9; A Gly-Gly-Gly-Ser linker stands between CerS6 and the Avi tag, which lies upstream of the TEV cleavage site; also called biotinylated CerS6; Avi-tagged CerS6; not shown: Avi, C-terminal, kept; 10xHis, C-terminal, cleaved; Twin-Strep, C-terminal, cleaved
T1 chain: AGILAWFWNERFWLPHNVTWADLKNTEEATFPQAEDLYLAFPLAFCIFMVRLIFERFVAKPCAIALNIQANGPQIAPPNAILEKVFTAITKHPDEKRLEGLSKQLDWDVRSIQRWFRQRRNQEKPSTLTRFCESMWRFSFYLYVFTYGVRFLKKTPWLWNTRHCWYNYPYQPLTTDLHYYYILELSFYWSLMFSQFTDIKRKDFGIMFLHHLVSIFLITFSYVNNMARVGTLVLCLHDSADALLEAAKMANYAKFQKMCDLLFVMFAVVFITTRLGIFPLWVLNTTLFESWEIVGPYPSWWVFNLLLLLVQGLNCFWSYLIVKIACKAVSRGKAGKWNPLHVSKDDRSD

[3] = biological target: human ceramide synthase 6 (CerS6), truncated at Asp350 (Met1-Asp350) (human) (UniProt Q6ZMG9); assay: cryo-EM structure; CerS6 dimer mixed with a 1.5x molar excess of nanobody (Nb22 or Nb02), 1 h on ice, complex purified by SEC in GDN, 5 mg/ml; the CerS6–Nb22 complex also after incubation with 120 µM FB1; C2 symmetry imposed
[4] = biological target: the molecule itself; assay: as above

B1: CerS6: N18Q (protein)
parent chain: MAGILAWFWNERFWLPHNVTWADLKNTEEATFPQAEDLYLAFPLAFCIFMVRLIFERFVAKPCAIALNIQANGPQIAPPNAILEKVFTAITKHPDEKRLEGLSKQLDWDVRSIQRWFRQRRNQEKPSTLTRFCESMWRFSFYLYVFTYGVRFLKKTPWLWNTRHCWYNYPYQPLTTDLHYYYILELSFYWSLMFSQFTDIKRKDFGIMFLHHLVSIFLITFSYVNNMARVGTLVLCLHDSADALLEAAKMANYAKFQKMCDLLFVMFAVVFITTRLGIFPLWVLNTTLFESWEIVGPYPSWWVFNLLLLLVQGLNCFWSYLIVKIACKAVSRGKVSKDDRSDIESSSDEEDSEPPGKNPHTATTTNGTSGTNGYLLTGSCSMDD
other: presence of covalent palmitoyl-enzyme adduct, other: adduct mass shift [1]: no change, +239.80 vs +238.45

binding result [2]: binds
stoichiometry N [3]: 1 per monomer
B2: nanobody 22 (Nb22), anti-CerS6 camelid nanobody (VHH)
VHH: QVQLVESGGGLVQAEGSLRLSCAASGRTFRTYGMGWFRQAPGKEREFVAALNWSGSSTYYADSVKGRFTISRDNAKNTAYLQMNSLKPEDTAVYYCAALRRKAEYGSRSIADFDSWSKGTPVTVSS
notes: alpaca nanobody raised against CerS6 proteoliposomes; its chain is in the deposited models PDB 8QZ6 and 8QZ7 (residues 1-124 modelled); source: WK6 cells, purified from periplasmic extracts (Ni2+-NTA)

B3: human ceramide synthase 6 (CerS6), truncated at Asp350 (Met1-Asp350) (enzyme, UniProt Q6ZMG9-2 1-350, looked up)
chain: MAGILAWFWNERFWLPHNVTWADLKNTEEATFPQAEDLYLAFPLAFCIFMVRLIFERFVAKPCAIALNIQANGPQIAPPNAILEKVFTAITKHPDEKRLEGLSKQLDWDVRSIQRWFRQRRNQEKPSTLTRFCESMWRFSFYLYVFTYGVRFLKKTPWLWNTRHCWYNYPYQPLTTDLHYYYILELSFYWSLMFSQFTDIKRKDFGIMFLHHLVSIFLITFSYVNNMARVGTLVLCLHDSADALLEAAKMANYAKFQKMCDLLFVMFAVVFITTRLGIFPLWVLNTTLFESWEIVGPYPSWWVFNLLLLLVQGLNCFWSYLIVKIACKAVSRGKAGKWNPLHVSKDDRSD
modifications: palmitoyl (C16:0) chain covalently attached to His211 (covalent intermediate state; transferred to FB1 in the N-palmitoyl FB1-bound state); N-linked glycan on Asn18; loss of the initiator methionine and acetylation of the new N terminus
notes: Ceramide synthase 6 (CerS6), Homo sapiens, UniProt Q6ZMG9, residues Met1-Asp350; C terminus predicted to be disordered removed; Purified as a mixture of monomer and dimer; the dimer SEC peak was used for the nanobody complexes and cryo-EM; also called acyl–CerS6; palmitoyl–CerS6; not shown: 10xHis, C-terminal, cleaved; Twin-Strep, C-terminal, cleaved
stoichiometry N [4]: 2

binding result [2]: binds
stoichiometry N [3]: 1
B4: nanobody 02 (Nb02), anti-CerS6 camelid nanobody (VHH)
VHH: QLQFVESGGGLVQAGGSLRLSCAASGRTFSRYAVGWFRQAPGKEREFVASITWNGATTYYADSVKGRFTISRDNAKNTVYLQMNSLKPEDTAVYYCALDLYSYGTRDVADFGSWGKGTRVTVSS
notes: alpaca nanobody raised against CerS6 proteoliposomes; its chain is in the deposited model PDB 9EOT (residues 1-123 modelled); source: WK6 cells, purified from periplasmic extracts (Ni2+-NTA)
